In series [1] the test system is HeLa Kyoto. Description: melting temperature (median over replicates), in situ; higher = more thermally stable.
Series [2] deals with HeLa Kyoto. Description: thermal stability score vs G1/S (z-score of summed log2 fold changes over temperatures); higher = more thermally stable than in G1/S.
In series [3] the test system is HeLa Kyoto. Description: solubility in G1/S (NP-40 vs SDS abundance) (log2 ratio); higher = more soluble. Conditions: cell cycle stage: G1/S.
Series [4] concerns HeLa Kyoto. Description: solubility change mitosis vs G1/S (difference of NP-40 vs SDS log2 ratios) (log2 ratio difference); higher = more soluble in mitosis.
Setting [5] is: cell cycle stage: early G1 (4.5 h after nocodazole release).

We go through six sequences from the supplement of paper PMC5998384.
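Wherever melting temperature (median over replicates), in situ is given: HeLa Kyoto cells synchronized by double thymidine or nocodazole block, proteins quantified by TMT10plex mass spectrometry, three independent biological replicates.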
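Wherever solubility change mitosis vs G1/S (difference of NP-40 vs SDS log2 ratios) is given: synchronized HeLa Kyoto cells (double thymidine block for G1/S, nocodazole release for mitosis), protein amounts in NP-40 versus SDS lysates quantified by mass spectrometry, three biological replicates.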
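Wherever solubility in G1/S (NP-40 vs SDS abundance) is given: HeLa Kyoto cells arrested at G1/S by double thymidine block, proteins quantified by TMT10plex mass spectrometry in mild NP-40 versus SDS extracts, three biological replicates.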
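Wherever thermal stability score vs G1/S (z-score of summed log2 fold changes over temperatures) is given: synchronized HeLa Kyoto cells, proteins quantified by TMT10plex mass spectrometry, three biological replicates, mitosis taken 0.5 h after nocodazole release, G1/S directly after double thymidine block.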

Regarding “MEGKWLLCMLLVLGTAIVEAHDGHDDDVIDIEDDLDDVIEEVEDSKPDTTAPPSSPKVTYKAPVPTGEVYFADSFDRGTLSGWILSKAKKDDTDDEIAKYDGKWEVEEMKESKLPGDKGLVLMSRAKHHAISAKLNKPFLFDTKPLIVQYEVNFQNGIECGGAYVKLLSKTPELNLDQFHDKTPYTIMFGPDKCGEDYKLHFIFRHKNPKTGIYEEKHAKRPDADLKTYFTDKKTHLYTLILNPDNSFEILVDQSVVNSGNLLNDMTPPVNPSREIEDPEDRKPEDWDERPKIPDPEAVKPDDWDEDAPAKIPDEEATKPEGWLDDEPEYVPDPDAEKPEDWDEDMDGEWEAPQIANPRCESAPGCGVWQRPVIDNPNYKGKWKPPMIDNPSYQGIWKPRKIPNPDFFEDLEPFRMTPFSAIGLELWSMTSDIFFDNFIICADRRIVDDWANDGWGLKKAADGAAEPGVVGQMIEAAEERPWLWVVYILTVALPVFLVILFCCSGKKQTSGMEYKKTDAPQPDVKEEEEEKEEEKDKGDEEEEGEEKLEEKQKSDAEEDGGTVSQEEEDRKPKAEEDEILNRSPRNRKPRRE [CANX]”, the melting temperature was determined as 53.7 °C in series [1] (cell cycle stage: G1/S) and 53.9 °C in series [1] (cell cycle stage: mitosis). For the same sequence, the thermal stability score in series [2] (setting [5]) came out at 2.71; in series [2] (cell cycle stage: mitosis), 3.35. Besides, the “solubility in G1/S (log2)” value in series [3] worked out at 0.339. The “solubility change mitosis (log2)” value in series [4] is -0.0953.

Turning to “MTERRRDELSEEINNLREKVMKQSEENNNLQSQVQKLTEENTTLREQVEPTPEDEDDDIELRGAAAAAAPPPPIEEECPEDLPEKFDGNPDMLAPFMAQCQIFMEKSTRDFSVDRVRVCFVTSMMTGRAARWASAKLERSHYLMHNYPAFMMEMKHVFEDPQRREVAKRKIRRLRQGMGSVIDYSNAFQMIAQDLDWNEPALIDQYHEGLSDHIQEELSHLEVAKSLSALIGQCIHIERRLARAAAARKPRSPPRALVLPHIASHHQVDPTEPVGGARMRLTQEEKERRRKLNLCLYCGTGGHYADNCPAKASKSSPAGKLPGPAVEGPSATGPEIIRSPQDDASSPHLQVMLQIHLPGRHTLFVRAMIDSGASGNFIDHEYVAQNGIPLRIKDWPILVEAIDGRPIASGPVVHETHDLIVDLGDHREVLSFDVTQSPFFPVVLGVRWLSTHDPNITWSTRSIVFDSEYCRYHCRMYSPIPPSLPPPAPQPPLYYPVDGYRVYQPVRYYYVQNVYTPVDEHVYPDHRLVDPHIEMIPGAHSIPSGHVYSLSEPEMAALRDFVARNVKDGLITPTIAPNGAQVLQVKRGWKLQVSYDCRAPNNFTIQNQYPRLSIPNLEDQAHLATYTEFVPQIPGYQTYPTYAAYPTYPVGFAWYPVGRDGQGRSLYVPVMITWNPHWYRQPPVPQYPPPQPPPPPPPPPPPPSYSTL [PEG10]”, the melting temperature was 49.4 °C in series [1] (cell cycle stage: G1/S) and 49.8 °C in series [1] (cell cycle stage: mitosis). Moreover, the thermal stability score in series [2] (setting [5]) was determined as 0.275; in series [2] (cell cycle stage: mitosis), 0.54. Further, in series [3], the “solubility in G1/S (log2)” value is 0.144. Further, in series [4], the “solubility change mitosis (log2)” value was -0.00752.

With “MASASTSKYNSHSLENESIKRTSRDGVNRDLTEAVPRLPGETLITDKEVIYICPFNGPIKGRVYITNYRLYLRSLETDSSLILDVPLGVISRIEKMGGATSRGENSYGLDITCKDMRNLRFALKQEGHSRRDMFEILTRYAFPLAHSLPLFAFLNEEKFNVDGWTVYNPVEEYRRQGLPNHHWRITFINKCYELCDTYPALLVVPYRASDDDLRRVATFRSRNRIPVLSWIHPENKTVIVRCSQPLVGMSGKRNKDDEKYLDVIRETNKQISKLTIYDARPSVNAVANKATGGGYESDDAYHNAELFFLDIHNIHVMRESLKKVKDIVYPNVEESHWLSSLESTHWLEHIKLVLTGAIQVADKVSSGKSSVLVHCSDGWDRTAQLTSLAMLMLDSFYRSIEGFEILVQKEWISFGHKFASRIGHGDKNHTDADRSPIFLQFIDCVWQMSKQFPTAFEFNEQFLIIILDHLYSCRFGTFLFNCESARERQKVTERTVSLWSLINSNKEKFKNPFYTKEINRVLYPVASMRHLELWVNYYIRWNPRIKQQQPNPVEQRYMELLALRDEYIKRLEELQLANSAKLSDPPTSPSSPSQMMPHVQTHF [MTM1]”, the melting temperature in series [1] (cell cycle stage: G1/S) is 55.2 °C; in series [1] (cell cycle stage: mitosis) it was 54 °C. Moreover, the thermal stability score in series [2] (setting [5]) was -1.72; in series [2] (cell cycle stage: mitosis), -2.37. Further, the “solubility in G1/S (log2)” value in series [3] is -0.0766. Further, in series [4], the “solubility change mitosis (log2)” value came out at 0.0496.

As to “MEAEGSSAPARAGSGEGSDSAGGATLKAPKHLWRHEQHHQYPLRQPQFRLLHPHHHLPPPPPPSPQPQPQCPLQPPPPPPLPPPPPPPGAARGRYASSGATGRVRHRGYSDTERYLYCRAMDRTSYAVETGHRPGLKKSRMSWPSSFQGLRRFDVDNGTSAGRSPLDPMTSPGSGLILQANFVHSQRRESFLYRSDSDYDLSPKSMSRNSSIASDIHGDDLIVTPFAQVLASLRTVRNNFAALTNLQDRAPSKRSPMCNQPSINKATITEEAYQKLASETLEELDWCLDQLETLQTRHSVSEMASNKFKRMLNRELTHLSEMSRSGNQVSEFISNTFLDKQHEVEIPSPTQKEKEKKKRPMSQISGVKKLMHSSSLTNSSIPRFGVKTEQEDVLAKELEDVNKWGLHVFRIAELSGNRPLTVIMHTIFQERDLLKTFKIPVDTLITYLMTLEDHYHADVAYHNNIHAADVVQSTHVLLSTPALEAVFTDLEILAAIFASAIHDVDHPGVSNQFLINTNSELALMYNDSSVLENHHLAVGFKLLQEENCDIFQNLTKKQRQSLRKMVIDIVLATDMSKHMNLLADLKTMVETKKVTSSGVLLLDNYSDRIQVLQNMVHCADLSNPTKPLQLYRQWTDRIMEEFFRQGDRERERGMEISPMCDKHNASVEKSQVGFIDYIVHPLWETWADLVHPDAQDILDTLEDNREWYQSTIPQSPSPAPDDPEEGRQGQTEKFQFELTLEEDGESDTEKDSGSQVEEDTSCSDSKTLCTQDSESTEIPLDEQVEEEAVGEEEESQPEACVIDDRSPDT [PDE4D]”, the melting temperature was 53.2 °C in series [1] (cell cycle stage: G1/S) and 51.1 °C in series [1] (cell cycle stage: mitosis). The thermal stability score in series [2] (setting [5]) is -2.8; in series [2] (cell cycle stage: mitosis), -4.75. For the same sequence, the “solubility in G1/S (log2)” value in series [3] was found to be 0.0456. Besides, the “solubility change mitosis (log2)” value in series [4] was -0.23.

With “MEEIYAKFVSQKISKTRWRPLPPGSLQTAETFATGSWDNEENYISLWSIGDFGNLDSDGGFEGDHQLLCDIRHHGDVMDLQFFDQERIVAASSTGCVTVFLHHPNNQTLSVNQQWTTAHYHTGPGSPSYSSAPCTGVVCNNPEIVTVGEDGRINLFRADHKEAVRTIDNADSSTLHAVTFLRTPEILTVNSIGQLKIWDFRQQGNEPSQILSLTGDRVPLHCVDRHPNQQHVVATGGQDGMLSIWDVRQGTMPVSLLKAHEAEMWEVHFHPSNPEHLFTCSEDGSLWHWDASTDVPEKSSLFHQGGRSSTFLSHSISNQANVHQSVISSWLSTDPAKDRIEITSLLPSRSLSVNTLDVLGPCLVCGTDAEAIYVTRHLFS [NUP43]”, the melting temperature in series [1] (cell cycle stage: G1/S) and in series [1] (cell cycle stage: mitosis) was 53.1 °C each time. In addition, the thermal stability score in series [2] (setting [5]) is -1.7; in series [2] (cell cycle stage: mitosis), -3.31. In addition, the “solubility in G1/S (log2)” value in series [3] was -0.175. Further, in series [4], the “solubility change mitosis (log2)” value was 0.0611.

As to “MLRMRTAGWARGWCLGCCLLLPLSLSLAAAKQLLRYRLAEEGPADVRIGNVASDLGIVTGSGEVTFSLESGSEYLKIDNLTGELSTSERRIDREKLPQCQMIFDENECFLDFEVSVIGPSQSWVDLFEGQVIVLDINDNTPTFPSPVLTLTVEENRPVGTLYLLPTATDRDFGRNGIERYELLQEPGGGGSGGESRRAGAADSAPYPGGGGNGASGGGSGGSKRRLDASEGGGGTNPGGRSSVFELQVADTPDGEKQPQLIVKGALDREQRDSYELTLRVRDGGDPPRSSQAILRVLITDVNDNSPRFEKSVYEADLAENSAPGTPILQLRAADLDVGVNGQIEYVFGAATESVRRLLRLDETSGWLSVLHRIDREEVNQLRFTVMARDRGQPPKTDKATVVLNIKDENDNVPSIEIRKIGRIPLKDGVANVAEDVLVDTPIALVQVSDRDQGENGVVTCTVVGDVPFQLKPASDTEGDQNKKKYFLHTSTPLDYEATREFNVVIVAVDSGSPSLSSNNSLIVKVGDTNDNPPMFGQSVVEVYFPENNIPGERVATVLATDADSGKNAEIAYSLDSSVMGIFAIDPDSGDILVNTVLDREQTDRYEFKVNAKDKGIPVLQGSTTVIVQVADKNDNDPKFMQDVFTFYVKENLQPNSPVGMVTVMDADKGRNAEMSLYIEENNNIFSIENDTGTIYSTMSFDREHQTTYTFRVKAVDGGDPPRSATATVSLFVMDENDNAPTVTLPKNISYTLLPPSSNVRTVVATVLATDSDDGINADLNYSIVGGNPFKLFEIDPTSGVVSLVGKLTQKHYGLHRLVVQVNDSGQPSQSTTTLVHVFVNESVSNATAIDSQIARSLHIPLTQDIAGDPSYEISKQRLSIVIGVVAGIMTVILIILIVVMARYCRSKNKNGYEAGKKDHEDFFTPQQHDKSKKPKKDKKNKKSKQPLYSSIVTVEASKPNGQRYDSVNEKLSDSPSMGRYRSVNGGPGSPDLARHYKSSSPLPTVQLHPQSPTAGKKHQAVQDLPPANTFVGAGDNISIGSDHCSEYSCQTNNKYSKQMRLHPYITVFG [PCDH7]”, the values for the melting temperature in series [1] (cell cycle stage: G1/S) and in series [1] (cell cycle stage: mitosis) were 55.1 °C and 53.4 °C, respectively. Further, the figures for the thermal stability score in series [2] (setting [5]) and in series [2] (cell cycle stage: mitosis) were -1.64 and -1.07, respectively. In series [3], the “solubility in G1/S (log2)” value is 0.215. The “solubility change mitosis (log2)” value in series [4] was -0.075.
